Laboratory results from US20060240044A1.

Target: human Vβ1.1 TcR (human)
Experiment: cell-based or functional assay

Substance	Percentage of Vβ enrichment (Vβ 1.1) [%]	Vβ cDNA clones from toxin stimulated T cells identified as Vβ1.1	stimulation of T cells carrying the Vβ1.1 TcR, against ConA (further results) [times]	stimulation of T cells carrying the Vβ1.1 TcR, against ConA (initial results) [times]
recombinant SPE-L	8.44	5 of 5 cDNAs	> 80	> 50
recombinant SPE-M	6.75	4 of 5 cDNAs	70	> 60
